Consider one molecule from paper PMC10478522.

Assay [1] addresses AcrIC9 from Rhodobacter capsulatus (Rhodobacter capsulatus). In words: SEC-MALS; purified AcrIC9 alone on Superdex 200 Increase 10/300 GL, 20 mM Tris-HCl pH 8.0, 150 mM NaCl, room temperature; dimer to monomers.
Assay [2] addresses type IC cascade from Neisseria lactamica (NlaCascade/crRNA complex) (Neisseria lactamica). In words: SPR; BIAcore T200, NlaCascade/crRNA complex captured on a Ni-NTA chip (711-826 RU), AcrIC9 injected in twofold dilutions from 125 nM (8 to 125 nM), HBS-P buffer (0.01 M HEPES pH 7.4, 0.15 M NaCl, 0.005% P20), 25°C, 1:1 binding model.
Assay [3] has as its target type IC cascade from Neisseria lactamica with crRNA (Neisseria lactamica). In words: SPR; BIAcore T200; NlaCascade/crRNA complex captured on a Ni-loaded NTA chip (711-826 RU); AcrIC9 injected in twofold dilutions from 125 nM at 30 ul/min, 120 s contact, 240 s dissociation; 25 °C; HBS-P buffer (0.01 M HEPES pH 7.4, 0.15 M NaCl, 0.005% Surfactant P20); 1:1 binding model.

B1: AcrIC9 from Rhodobacter capsulatus (natural protein)
chain: METKMTSFYKITAYNSQALYFWGTDADVDRYVDWLNRDREINVYAAEAIPEAEWAQYEGRDDVLSGEECGWDDFMSAEA
The term stoichiometry N denotes a count of units in the complex or per binding partner. By Kd is commonly meant a measure of binding affinity in units of concentration. Read a high Kd as a looser complex. Usually koff stands for a measure of how fast the partners let go of each other. A word on the kon: it is a measure of how fast the partners come together. A high value points to faster complex formation. B1 showed a stoichiometry N in assay [1] of 2. Also, the Kd in assay [2] was 4.32 nM. Moreover, in assay [3], the Kd was determined as 43.2 nM, the koff came out at 0.00404 s⁻¹ and the kon was 93500 M⁻¹ s⁻¹.
